{"source": "paper PMC13269782", "key": {"[1]": {"target": "Cx36 E239K (human) (UniProt Q9UKL4)"}, "[2]": {"target": "Cx36 K238A (human) (UniProt Q9UKL4)"}, "[3]": {"target": "Cx36 E230K-E239K (human) (UniProt Q9UKL4)"}, "[4]": {"target": "Cx36 K238Q (human) (UniProt Q9UKL4)"}, "[5]": {"target": "Cx36 K238E-E230K (human) (UniProt Q9UKL4)"}, "[6]": {"target": "Cx36 K238E-E239K (human) (UniProt Q9UKL4)"}, "[7]": {"target": "Connexin36 (Cx36), human, wildtype (human) (UniProt Q9UKL4)"}, "[8]": {"target": "Cx36 E230K (human) (UniProt Q9UKL4)"}, "[9]": {"target": "Cx31.3, human (human) (UniProt Q8NFK1)", "sequence (Q8NFK1 whole entry)": "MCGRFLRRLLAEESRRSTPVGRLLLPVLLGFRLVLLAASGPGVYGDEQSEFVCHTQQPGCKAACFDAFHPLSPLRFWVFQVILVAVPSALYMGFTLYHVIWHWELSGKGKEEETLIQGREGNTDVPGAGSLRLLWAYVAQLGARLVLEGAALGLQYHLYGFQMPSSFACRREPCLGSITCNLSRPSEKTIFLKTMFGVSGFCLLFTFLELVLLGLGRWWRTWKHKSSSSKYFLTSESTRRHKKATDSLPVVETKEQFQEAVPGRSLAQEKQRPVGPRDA"}, "[10]": {"target": "T1, Cx47, human (human) (UniProt Q5T442)", "T1 sequence": "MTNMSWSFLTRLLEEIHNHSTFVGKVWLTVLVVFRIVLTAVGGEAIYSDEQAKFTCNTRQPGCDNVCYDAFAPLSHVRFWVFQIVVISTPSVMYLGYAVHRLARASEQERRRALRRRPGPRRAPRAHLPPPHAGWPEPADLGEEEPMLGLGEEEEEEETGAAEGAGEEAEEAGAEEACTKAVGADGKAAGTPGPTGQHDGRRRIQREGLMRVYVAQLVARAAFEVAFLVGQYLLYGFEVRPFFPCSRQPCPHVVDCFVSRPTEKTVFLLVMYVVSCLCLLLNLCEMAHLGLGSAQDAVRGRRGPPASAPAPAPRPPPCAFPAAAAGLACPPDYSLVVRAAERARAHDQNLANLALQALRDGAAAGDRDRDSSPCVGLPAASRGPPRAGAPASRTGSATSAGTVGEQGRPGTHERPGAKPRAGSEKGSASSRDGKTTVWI"}, "[11]": {"target": "Cx30, human (human) (UniProt O95452)", "sequence (O95452 whole entry)": "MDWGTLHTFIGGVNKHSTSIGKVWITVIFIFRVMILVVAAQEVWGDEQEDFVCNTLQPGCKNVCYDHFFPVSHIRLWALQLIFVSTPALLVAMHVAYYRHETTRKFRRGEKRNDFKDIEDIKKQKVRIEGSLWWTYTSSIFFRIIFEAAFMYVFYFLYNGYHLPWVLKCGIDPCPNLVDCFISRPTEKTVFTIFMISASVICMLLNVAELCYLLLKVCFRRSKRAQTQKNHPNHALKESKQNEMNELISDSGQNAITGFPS"}, "[12]": {"target": "Cx43, human (human) (UniProt P17302)", "sequence (P17302 whole entry)": "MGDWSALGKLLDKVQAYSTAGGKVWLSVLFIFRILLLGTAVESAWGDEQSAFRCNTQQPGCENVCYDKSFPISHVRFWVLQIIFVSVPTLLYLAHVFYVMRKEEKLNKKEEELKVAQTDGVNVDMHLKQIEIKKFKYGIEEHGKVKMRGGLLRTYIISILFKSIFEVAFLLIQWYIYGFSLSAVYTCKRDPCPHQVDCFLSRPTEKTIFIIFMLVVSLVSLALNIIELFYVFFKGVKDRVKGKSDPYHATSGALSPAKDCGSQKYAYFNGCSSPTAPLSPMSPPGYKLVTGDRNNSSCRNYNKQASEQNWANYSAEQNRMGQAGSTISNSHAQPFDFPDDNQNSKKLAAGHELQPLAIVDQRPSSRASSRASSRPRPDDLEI"}, "[13]": {"target": "Cx45, human (human) (UniProt P36383)", "sequence (P36383 whole entry)": "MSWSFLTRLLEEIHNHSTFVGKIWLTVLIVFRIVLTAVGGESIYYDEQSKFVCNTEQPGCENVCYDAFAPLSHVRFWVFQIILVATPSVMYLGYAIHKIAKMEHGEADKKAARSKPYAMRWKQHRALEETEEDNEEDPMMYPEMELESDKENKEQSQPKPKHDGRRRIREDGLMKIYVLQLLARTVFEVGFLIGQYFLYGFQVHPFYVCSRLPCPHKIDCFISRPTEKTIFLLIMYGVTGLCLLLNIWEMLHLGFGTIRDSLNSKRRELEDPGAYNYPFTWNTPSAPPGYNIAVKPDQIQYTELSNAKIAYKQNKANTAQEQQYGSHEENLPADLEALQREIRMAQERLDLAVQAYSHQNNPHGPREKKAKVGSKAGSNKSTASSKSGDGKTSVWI"}, "[14]": {"target": "Cx26, human (human) (UniProt P29033)"}, "[15]": {"target": "Cx32 (human) (UniProt P08034)", "sequence (P08034 whole entry)": "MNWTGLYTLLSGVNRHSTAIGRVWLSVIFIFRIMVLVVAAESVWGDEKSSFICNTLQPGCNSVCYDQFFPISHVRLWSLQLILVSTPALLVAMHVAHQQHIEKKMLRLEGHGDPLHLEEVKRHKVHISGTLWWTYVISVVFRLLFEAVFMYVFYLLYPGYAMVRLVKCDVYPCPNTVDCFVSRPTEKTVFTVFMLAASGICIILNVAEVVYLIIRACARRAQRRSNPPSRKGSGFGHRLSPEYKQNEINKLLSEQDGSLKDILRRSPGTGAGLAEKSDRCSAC"}, "[16]": {"target": "Cx36 K238E (human) (UniProt Q9UKL4)"}, "[17]": {"target": "Cx36 E230K-E239K-E241K (human) (UniProt Q9UKL4)"}, "[18]": {"target": "Cx36 E241A (human) (UniProt Q9UKL4)"}, "[19]": {"target": "Cx36 E241K (human) (UniProt Q9UKL4)"}, "[20]": {"target": "Cx36 K238E-E230K-E239K (human) (UniProt Q9UKL4)"}, "[21]": {"target": "Cx36 K238E-E230K-E239K-E241K (human) (UniProt Q9UKL4)"}}, "data": [{"substance": "Connexin36 (Cx36), human, wildtype (from UniProt Q9UKL4 1-321) (natural protein)", "values": [{"measurement": "median junctional conductance (Gj), dual whole-cell patch clamp of DKO HEK293 cell pairs, heterotypic; IQR 0.08–0.19; 18 pairs", "setting": "[1]", "value": 0.13, "unit": "nS"}, {"measurement": "median junctional conductance (Gj), dual whole-cell patch clamp of DKO HEK293 cell pairs, heterotypic; IQR 0.05–0.24; 17 pairs", "setting": "[2]", "value": 0.16, "unit": "nS"}, {"measurement": "median junctional conductance (Gj), dual whole-cell patch clamp of DKO HEK293 cell pairs, heterotypic; IQR 0.11–0.41; 19 pairs", "setting": "[3]", "value": 0.22, "unit": "nS"}, {"measurement": "median junctional conductance (Gj), dual whole-cell patch clamp of DKO HEK293 cell pairs, heterotypic; IQR 0.01–0.31; 16 pairs", "setting": "[4]", "value": 0.13, "unit": "nS"}, {"measurement": "median junctional conductance (Gj), dual whole-cell patch clamp of DKO HEK293 cell pairs, heterotypic; IQR 0–0; 16 pairs", "setting": "[5]", "value": 0, "unit": "nS"}, {"measurement": "median junctional conductance (Gj), dual whole-cell patch clamp of DKO HEK293 cell pairs, heterotypic; IQR 0–0.10; 15 pairs", "setting": "[6]", "value": 0.06, "unit": "nS"}, {"measurement": "median junctional conductance (Gj), dual whole-cell patch clamp of DKO HEK293 cell pairs, homotypic; IQR 0.02–0.19; 38 pairs", "setting": "[7]", "value": 0.1, "unit": "nS"}, {"measurement": "median junctional conductance (Gj), dual whole-cell patch clamp of DKO HEK293 cell pairs, heterotypic; IQR 0.04–0.22; 15 pairs", "setting": "[8]", "value": 0.14, "unit": "nS"}, {"measurement": "median junctional conductance (Gj), dual whole-cell patch clamp of DKO HEK293 cell pairs, heterotypic; IQR 0–0; 15 pairs", "setting": "[9]", "value": 0, "unit": "nS"}, {"measurement": "median junctional conductance (Gj), dual whole-cell patch clamp of DKO HEK293 cell pairs, heterotypic; IQR 0–0; 21 pairs", "setting": "[10]", "value": 0, "unit": "nS"}, {"measurement": "median junctional conductance (Gj), dual whole-cell patch clamp of DKO HEK293 cell pairs, heterotypic; IQR 0–0; 15 pairs", "setting": "[11]", "value": 0, "unit": "nS"}, {"measurement": "median junctional conductance (Gj), dual whole-cell patch clamp of DKO HEK293 cell pairs, heterotypic; IQR 0–0; 25 pairs", "setting": "[12]", "value": 0, "unit": "nS"}, {"measurement": "median junctional conductance (Gj), dual whole-cell patch clamp of DKO HEK293 cell pairs, heterotypic; IQR 0–0; 26 pairs", "setting": "[13]", "value": 0, "unit": "nS"}, {"measurement": "median junctional conductance (Gj), dual whole-cell patch clamp of DKO HEK293 cell pairs, heterotypic; IQR 0–0; 19 pairs", "setting": "[14]", "value": 0, "unit": "nS"}, {"measurement": "median junctional conductance (Gj), dual whole-cell patch clamp of DKO HEK293 cell pairs, heterotypic; IQR 0–0; 19 pairs", "setting": "[15]", "value": 0, "unit": "nS"}]}, {"substance": "Cx30, human (from UniProt O95452 1-261) (natural protein)", "values": [{"measurement": "median junctional conductance (Gj), dual whole-cell patch clamp of DKO HEK293 cell pairs, homotypic; IQR 0.43–21.28; 16 pairs", "setting": "[11]", "value": 6.55, "unit": "nS"}]}, {"substance": "Cx31.3, human (from UniProt Q8NFK1 1-279) (natural protein)", "values": [{"measurement": "median junctional conductance (Gj), dual whole-cell patch clamp of DKO HEK293 cell pairs, homotypic; IQR 0–0; 17 pairs", "setting": "[9]", "value": 0, "unit": "nS"}]}, {"substance": "Cx32 (from UniProt P08034 1-283) (natural protein)", "values": [{"measurement": "median junctional conductance (Gj), dual whole-cell patch clamp of DKO HEK293 cell pairs, homotypic; IQR 0–16.23; 17 pairs", "setting": "[15]", "value": 0.85, "unit": "nS"}]}, {"substance": "Cx36 E230K (from UniProt Q9UKL4 1-321) (natural protein)", "values": [{"measurement": "median junctional conductance (Gj), dual whole-cell patch clamp of DKO HEK293 cell pairs, heterotypic; IQR 0–0; 20 pairs", "setting": "[3]", "value": 0, "unit": "nS"}, {"measurement": "median junctional conductance (Gj), dual whole-cell patch clamp of DKO HEK293 cell pairs, heterotypic; IQR 0.05–0.22; 20 pairs", "setting": "[16]", "value": 0.1, "unit": "nS"}, {"measurement": "median junctional conductance (Gj), dual whole-cell patch clamp of DKO HEK293 cell pairs, homotypic; IQR 0–0.14; 28 pairs", "setting": "[8]", "value": 0.01, "unit": "nS"}]}, {"substance": "Cx36 E230K-E239K (from UniProt Q9UKL4 1-321) (natural protein)", "values": [{"measurement": "median junctional conductance (Gj), dual whole-cell patch clamp of DKO HEK293 cell pairs, homotypic; IQR 0–0; 20 pairs", "setting": "[3]", "value": 0, "unit": "nS"}, {"measurement": "median junctional conductance (Gj), dual whole-cell patch clamp of DKO HEK293 cell pairs, heterotypic; IQR 0–0.18; 15 pairs", "setting": "[5]", "value": 0.09, "unit": "nS"}]}, {"substance": "Cx36 E230K-E239K-E241K (from UniProt Q9UKL4 1-321) (natural protein)", "values": [{"measurement": "median junctional conductance (Gj), dual whole-cell patch clamp of DKO HEK293 cell pairs, homotypic; IQR 0–0; 12 pairs", "setting": "[17]", "value": 0, "unit": "nS"}]}, {"substance": "Cx36 E239K (from UniProt Q9UKL4 1-321) (natural protein)", "values": [{"measurement": "median junctional conductance (Gj), dual whole-cell patch clamp of DKO HEK293 cell pairs, homotypic; IQR 0.04–0.31; 30 pairs", "setting": "[1]", "value": 0.12, "unit": "nS"}, {"measurement": "median junctional conductance (Gj), dual whole-cell patch clamp of DKO HEK293 cell pairs, heterotypic; IQR 0–0.12; 21 pairs", "setting": "[3]", "value": 0.05, "unit": "nS"}, {"measurement": "median junctional conductance (Gj), dual whole-cell patch clamp of DKO HEK293 cell pairs, heterotypic; IQR 0.08–0.2; 23 pairs", "setting": "[16]", "value": 0.11, "unit": "nS"}]}, {"substance": "Cx36 E241A (from UniProt Q9UKL4 1-321) (natural protein)", "values": [{"measurement": "median junctional conductance (Gj), dual whole-cell patch clamp of DKO HEK293 cell pairs, homotypic; IQR 0.03–0.19; 18 pairs", "setting": "[18]", "value": 0.09, "unit": "nS"}, {"measurement": "median junctional conductance (Gj), dual whole-cell patch clamp of DKO HEK293 cell pairs, heterotypic; IQR 0–0; 16 pairs", "setting": "[3]", "value": 0, "unit": "nS"}]}, {"substance": "Cx36 E241K (from UniProt Q9UKL4 1-321) (natural protein)", "values": [{"measurement": "median junctional conductance (Gj), dual whole-cell patch clamp of DKO HEK293 cell pairs, homotypic; IQR 0–0; 25 pairs", "setting": "[19]", "value": 0, "unit": "nS"}]}, {"substance": "Cx36 K238A (from UniProt Q9UKL4 1-321) (natural protein)", "values": [{"measurement": "median junctional conductance (Gj), dual whole-cell patch clamp of DKO HEK293 cell pairs, homotypic; IQR 0–0; 23 pairs", "setting": "[2]", "value": 0, "unit": "nS"}]}, {"substance": "Cx36 K238E (from UniProt Q9UKL4 1-321) (natural protein)", "values": [{"measurement": "median junctional conductance (Gj), dual whole-cell patch clamp of DKO HEK293 cell pairs, heterotypic; IQR 0–0; 15 pairs", "setting": "[5]", "value": 0, "unit": "nS"}, {"measurement": "median junctional conductance (Gj), dual whole-cell patch clamp of DKO HEK293 cell pairs, heterotypic; IQR 0–0; 15 pairs", "setting": "[6]", "value": 0, "unit": "nS"}, {"measurement": "median junctional conductance (Gj), dual whole-cell patch clamp of DKO HEK293 cell pairs, heterotypic; IQR 0–0; 19 pairs", "setting": "[19]", "value": 0, "unit": "nS"}, {"measurement": "median junctional conductance (Gj), dual whole-cell patch clamp of DKO HEK293 cell pairs, homotypic; IQR 0–0; 19 pairs", "setting": "[16]", "value": 0, "unit": "nS"}, {"measurement": "median junctional conductance (Gj), dual whole-cell patch clamp of DKO HEK293 cell pairs, heterotypic; IQR 0–0; 18 pairs", "setting": "[17]", "value": 0, "unit": "nS"}]}, {"substance": "Cx36 K238E-E230K (from UniProt Q9UKL4 1-321) (natural protein)", "values": [{"measurement": "median junctional conductance (Gj), dual whole-cell patch clamp of DKO HEK293 cell pairs, homotypic; IQR 0–0; 15 pairs", "setting": "[5]", "value": 0, "unit": "nS"}]}, {"substance": "Cx36 K238E-E230K-E239K (from UniProt Q9UKL4 1-321) (natural protein)", "values": [{"measurement": "median junctional conductance (Gj), dual whole-cell patch clamp of DKO HEK293 cell pairs, homotypic; IQR 0.08–0.14; 16 pairs", "setting": "[20]", "value": 0.12, "unit": "nS"}]}, {"substance": "Cx36 K238E-E230K-E239K-E241K (from UniProt Q9UKL4 1-321) (natural protein)", "values": [{"measurement": "median junctional conductance (Gj), dual whole-cell patch clamp of DKO HEK293 cell pairs, homotypic; IQR 0–0; 16 pairs", "setting": "[21]", "value": 0, "unit": "nS"}]}, {"substance": "Cx36 K238E-E239K (from UniProt Q9UKL4 1-321) (natural protein)", "values": [{"measurement": "median junctional conductance (Gj), dual whole-cell patch clamp of DKO HEK293 cell pairs, homotypic; IQR 0–0; 15 pairs", "setting": "[6]", "value": 0, "unit": "nS"}]}, {"substance": "Cx36 K238Q (from UniProt Q9UKL4 1-321) (natural protein)", "values": [{"measurement": "median junctional conductance (Gj), dual whole-cell patch clamp of DKO HEK293 cell pairs, homotypic; IQR 0–0; 16 pairs", "setting": "[4]", "value": 0, "unit": "nS"}]}, {"substance": "Cx43, human (from UniProt P17302 1-382) (natural protein)", "values": [{"measurement": "median junctional conductance (Gj), dual whole-cell patch clamp of DKO HEK293 cell pairs, homotypic; IQR 0–9.93; 17 pairs", "setting": "[12]", "value": 0.46, "unit": "nS"}]}, {"substance": "Cx45, human (from UniProt P36383 1-396) (natural protein)", "values": [{"measurement": "median junctional conductance (Gj), dual whole-cell patch clamp of DKO HEK293 cell pairs, homotypic; IQR 0.5–19.6; 29 pairs", "setting": "[13]", "value": 6.8, "unit": "nS"}]}]}
